# Test results from IntAct's records for PubMed 28712572.
# Target: gbrap_human GABARAP (UniProt O95166)
# Sequence (O95166 whole entry): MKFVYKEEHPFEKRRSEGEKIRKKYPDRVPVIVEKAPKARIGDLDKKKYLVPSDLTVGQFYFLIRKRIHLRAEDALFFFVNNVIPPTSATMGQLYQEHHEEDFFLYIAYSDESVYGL
row,Substance,effect of a mutation on the interaction
1,"Pericentriolar material 1 protein (Homo sapiens), Q15154 P1970G",decreasing interaction strength
2,"Pericentriolar material 1 protein (Homo sapiens), Q15154 P1970H",with no effect
3,"Pericentriolar material 1 protein (Homo sapiens), Q15154 P1970I",decreasing interaction strength
4,"Pericentriolar material 1 protein (Homo sapiens), Q15154 P1970K",disrupting interaction strength
5,"Pericentriolar material 1 protein (Homo sapiens), Q15154 P1970L",decreasing interaction strength
6,"Pericentriolar material 1 protein (Homo sapiens), Q15154 P1970M",decreasing interaction strength
7,"Pericentriolar material 1 protein (Homo sapiens), Q15154 P1970N",decreasing interaction strength
8,"Pericentriolar material 1 protein (Homo sapiens), Q15154 P1970Q",decreasing interaction strength
9,"Pericentriolar material 1 protein (Homo sapiens), Q15154 P1970R",decreasing interaction strength
10,"Pericentriolar material 1 protein (Homo sapiens), Q15154 P1970S",disrupting interaction strength
11,"Pericentriolar material 1 protein (Homo sapiens), Q15154 P1970T",disrupting interaction strength
12,"Pericentriolar material 1 protein (Homo sapiens), Q15154 P1970V",disrupting interaction strength
13,"Pericentriolar material 1 protein (Homo sapiens), Q15154 P1970W",with no effect
14,"Pericentriolar material 1 protein (Homo sapiens), Q15154 P1970Y",disrupting interaction strength
15,"Pericentriolar material 1 protein (Homo sapiens), Q15154 Q1956A",with no effect
16,"Pericentriolar material 1 protein (Homo sapiens), Q15154 Q1956C",with no effect
17,"Pericentriolar material 1 protein (Homo sapiens), Q15154 Q1956D",with no effect
18,"Pericentriolar material 1 protein (Homo sapiens), Q15154 Q1956E",with no effect
19,"Pericentriolar material 1 protein (Homo sapiens), Q15154 Q1956F",with no effect
20,"Pericentriolar material 1 protein (Homo sapiens), Q15154 Q1956G",with no effect
21,"Pericentriolar material 1 protein (Homo sapiens), Q15154 Q1956H",with no effect
22,"Pericentriolar material 1 protein (Homo sapiens), Q15154 Q1956I",with no effect
23,"Pericentriolar material 1 protein (Homo sapiens), Q15154 Q1956K",with no effect

row,Substance,effect of a mutation on the interaction
1,"Pericentriolar material 1 protein (Homo sapiens), Q15154 Q1956L",with no effect
2,"Pericentriolar material 1 protein (Homo sapiens), Q15154 Q1956M",with no effect
3,"Pericentriolar material 1 protein (Homo sapiens), Q15154 Q1956N",with no effect
4,"Pericentriolar material 1 protein (Homo sapiens), Q15154 Q1956P",with no effect
5,"Pericentriolar material 1 protein (Homo sapiens), Q15154 Q1956R",with no effect
6,"Pericentriolar material 1 protein (Homo sapiens), Q15154 Q1956S",with no effect
7,"Pericentriolar material 1 protein (Homo sapiens), Q15154 Q1956T",with no effect
8,"Pericentriolar material 1 protein (Homo sapiens), Q15154 Q1956V",with no effect
9,"Pericentriolar material 1 protein (Homo sapiens), Q15154 Q1956W",with no effect
10,"Pericentriolar material 1 protein (Homo sapiens), Q15154 Q1956Y",with no effect
11,"Pericentriolar material 1 protein (Homo sapiens), Q15154 S1955A",with no effect
12,"Pericentriolar material 1 protein (Homo sapiens), Q15154 S1955C",with no effect
13,"Pericentriolar material 1 protein (Homo sapiens), Q15154 S1955D",with no effect
14,"Pericentriolar material 1 protein (Homo sapiens), Q15154 S1955E",with no effect
15,"Pericentriolar material 1 protein (Homo sapiens), Q15154 S1955F",with no effect
16,"Pericentriolar material 1 protein (Homo sapiens), Q15154 S1955G",with no effect
17,"Pericentriolar material 1 protein (Homo sapiens), Q15154 S1955H",with no effect
18,"Pericentriolar material 1 protein (Homo sapiens), Q15154 S1955I",with no effect
19,"Pericentriolar material 1 protein (Homo sapiens), Q15154 S1955K",with no effect
20,"Pericentriolar material 1 protein (Homo sapiens), Q15154 S1955L",with no effect
21,"Pericentriolar material 1 protein (Homo sapiens), Q15154 S1955M",with no effect
22,"Pericentriolar material 1 protein (Homo sapiens), Q15154 S1955N",with no effect
23,"Pericentriolar material 1 protein (Homo sapiens), Q15154 S1955P",with no effect

row,Substance,effect of a mutation on the interaction
1,"Pericentriolar material 1 protein (Homo sapiens), Q15154 S1955Q",with no effect
2,"Pericentriolar material 1 protein (Homo sapiens), Q15154 S1955R",with no effect
3,"Pericentriolar material 1 protein (Homo sapiens), Q15154 S1955T",with no effect
4,"Pericentriolar material 1 protein (Homo sapiens), Q15154 S1955V",decreasing interaction strength
5,"Pericentriolar material 1 protein (Homo sapiens), Q15154 S1955W",with no effect
6,"Pericentriolar material 1 protein (Homo sapiens), Q15154 S1955Y",with no effect
7,"Pericentriolar material 1 protein (Homo sapiens), Q15154 S1958A",with no effect
8,"Pericentriolar material 1 protein (Homo sapiens), Q15154 S1958C",with no effect
9,"Pericentriolar material 1 protein (Homo sapiens), Q15154 S1958D",with no effect
10,"Pericentriolar material 1 protein (Homo sapiens), Q15154 S1958E",with no effect
11,"Pericentriolar material 1 protein (Homo sapiens), Q15154 S1958F",with no effect
12,"Pericentriolar material 1 protein (Homo sapiens), Q15154 S1958G",with no effect
13,"Pericentriolar material 1 protein (Homo sapiens), Q15154 S1958H",with no effect
14,"Pericentriolar material 1 protein (Homo sapiens), Q15154 S1958I",with no effect
15,"Pericentriolar material 1 protein (Homo sapiens), Q15154 S1958K",with no effect
16,"Pericentriolar material 1 protein (Homo sapiens), Q15154 S1958L",with no effect
17,"Pericentriolar material 1 protein (Homo sapiens), Q15154 S1958M",with no effect
18,"Pericentriolar material 1 protein (Homo sapiens), Q15154 S1958N",with no effect
19,"Pericentriolar material 1 protein (Homo sapiens), Q15154 S1958P",with no effect
20,"Pericentriolar material 1 protein (Homo sapiens), Q15154 S1958Q",with no effect
21,"Pericentriolar material 1 protein (Homo sapiens), Q15154 S1958R",with no effect
22,"Pericentriolar material 1 protein (Homo sapiens), Q15154 S1958T",with no effect
23,"Pericentriolar material 1 protein (Homo sapiens), Q15154 S1958V",with no effect
